From publication PMC11098746 (2024)

Target: T1, ADP375
T1 chain: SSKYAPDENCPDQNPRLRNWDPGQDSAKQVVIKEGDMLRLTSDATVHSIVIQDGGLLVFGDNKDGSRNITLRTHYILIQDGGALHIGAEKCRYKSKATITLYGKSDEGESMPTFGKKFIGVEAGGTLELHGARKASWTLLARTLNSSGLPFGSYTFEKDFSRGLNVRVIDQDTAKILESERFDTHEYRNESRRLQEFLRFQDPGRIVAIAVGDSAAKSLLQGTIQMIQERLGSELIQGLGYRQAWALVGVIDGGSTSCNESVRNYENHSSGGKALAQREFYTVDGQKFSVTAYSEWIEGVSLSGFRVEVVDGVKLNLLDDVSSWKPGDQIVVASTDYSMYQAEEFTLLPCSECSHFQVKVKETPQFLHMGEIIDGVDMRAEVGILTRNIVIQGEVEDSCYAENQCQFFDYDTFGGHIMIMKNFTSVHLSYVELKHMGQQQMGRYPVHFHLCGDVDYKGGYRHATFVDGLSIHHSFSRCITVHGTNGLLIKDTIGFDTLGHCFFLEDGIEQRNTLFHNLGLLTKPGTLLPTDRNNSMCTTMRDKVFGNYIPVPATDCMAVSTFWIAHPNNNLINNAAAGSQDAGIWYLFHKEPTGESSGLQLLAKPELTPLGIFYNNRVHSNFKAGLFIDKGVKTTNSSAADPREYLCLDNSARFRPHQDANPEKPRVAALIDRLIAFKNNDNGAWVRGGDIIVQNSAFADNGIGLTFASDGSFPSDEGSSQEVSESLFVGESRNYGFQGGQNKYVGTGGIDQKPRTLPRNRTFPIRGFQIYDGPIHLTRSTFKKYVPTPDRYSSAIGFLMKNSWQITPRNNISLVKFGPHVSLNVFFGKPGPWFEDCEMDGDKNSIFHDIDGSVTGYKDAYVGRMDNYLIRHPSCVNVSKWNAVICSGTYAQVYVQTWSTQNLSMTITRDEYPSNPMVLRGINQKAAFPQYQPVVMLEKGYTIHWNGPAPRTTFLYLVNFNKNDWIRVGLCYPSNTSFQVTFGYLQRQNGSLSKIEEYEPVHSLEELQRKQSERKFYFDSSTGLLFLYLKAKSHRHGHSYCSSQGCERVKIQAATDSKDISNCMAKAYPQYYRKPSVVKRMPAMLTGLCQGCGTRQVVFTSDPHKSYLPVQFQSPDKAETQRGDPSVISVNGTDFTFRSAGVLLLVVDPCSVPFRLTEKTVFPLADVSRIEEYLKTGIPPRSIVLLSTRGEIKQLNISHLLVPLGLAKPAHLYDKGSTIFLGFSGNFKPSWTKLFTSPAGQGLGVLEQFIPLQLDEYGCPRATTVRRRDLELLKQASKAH
Experiment: AVEXIS screen signal:noise (double-corrected)

B1: ADP237 (protein)
chain: TKKKVSVSEINFDSAVDDVQWCGNNHMTVLVKTVKGRLYRSSDGGKIWTNIAGNLADKENNKADPSSNHMNEMTTVDLIMVNSVNKNIVLIIGNQKNHYISEDSGETFRLLNYQNKINFWQFHSTKTHWALVSSWTEACYSNDDNSGECMQTLSLTKDLGRTFQLIDIYVVQFNWGDKESHLEDTIYYTRHKNRNGHQQRFSGWSKDVDFVATHNFGKSVDVLVKQGNKFLISNGYIFVAKLNDVIKQTVNMMVSTDGGKTFNKANLPENIHEKSYTVLDTSEGSIMLHVNHGTSSEKINTGNVYISDASGLNYALSLPNNIRTSSGECEFDRVLSLDGVYIANFLDVNNEIKDEDLRFQNFKSAIEEDIAPFETNTEKRKKQYNKGKNEDAVRTVISFNKGGEWSYLKAPKVDSRGNKYECGDNCYLHLHGITNYHQYAPFYSIENAVGIIMGTGNVGSHLRYESDEVNTFLSRDGGVTWIEAHKGPYIYEYGDYGGLIVMADDLRKTNQIVFSWNEGQSWFDFELGQFSIDVDNIVAEPNSASVEFLVYGTRNDVGVLYHLDFNALGQPLCKGLWAADSVSSDYETWSPTSGNFNDKCILGRKITYTRRKQTSECFNGKDLKRTVDKKPCECTPEDYECETGFTRKIGSYECKPNDPTLTIEGCTSSSYFYANAYRKVPGDICVNGWVPEKVPVPCPSYAPFNKAAK
modifications: bait human Fc-tagged dimer; N-glycosylation sequons mutated in Plasmodium baits
With B1 the binding score was 24.4.
